Values quoted from earlier work, collected in publication PMC12608911.
Where two headings read alike, the source gives them in different places. Blank lines part the entries; values can stand above or below the substance they belong to.

How the values were obtained:
TREM-1 (Mus musculus) [1] = biological target: TREM-1 (Mus musculus) (UniProt Q9JKE2)
TREM-1 (Homo sapiens) [2] = biological target: TREM-1 (Homo sapiens) (UniProt Q9NP99)
Target sequence in this assay (Q9NP99 21-205): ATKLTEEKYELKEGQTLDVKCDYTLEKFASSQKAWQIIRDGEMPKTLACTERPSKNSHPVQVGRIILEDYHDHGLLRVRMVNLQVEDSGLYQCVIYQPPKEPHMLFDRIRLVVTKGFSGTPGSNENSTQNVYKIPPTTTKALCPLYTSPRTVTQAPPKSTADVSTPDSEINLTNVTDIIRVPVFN

TREM-1 (Homo sapiens) [3] = biological target: TREM-1 (Homo sapiens) (UniProt Q9NP99); remark: listed apart in the source
Target sequence in this assay (Q9NP99 21-234): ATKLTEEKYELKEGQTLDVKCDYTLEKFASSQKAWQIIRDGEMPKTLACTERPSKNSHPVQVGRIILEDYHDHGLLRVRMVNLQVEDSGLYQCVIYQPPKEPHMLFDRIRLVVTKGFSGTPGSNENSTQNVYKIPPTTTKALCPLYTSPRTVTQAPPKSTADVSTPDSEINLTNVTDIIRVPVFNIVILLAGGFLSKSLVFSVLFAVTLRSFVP

TREM-1 (Mus musculus) [4] = biological target: TREM-1 (Mus musculus) (UniProt Q9JKE2); remark: listed apart in the source
TREM-1 (Homo sapiens) [5] = biological target: TREM-1 (Homo sapiens) (UniProt Q9NP99); remark: listed apart in the source
Target sequence in this assay (Q9NP99 21-205): as the sequence (Q9NP99 21-205) above

TREM-1 (Homo sapiens) [6] = biological target: TREM-1 (Homo sapiens) (UniProt Q9NP99); remark: listed apart in the source
Target sequence in this assay (Q9NP99 21-205): as above

TREM-1 (Mus musculus) [7] = biological target: TREM-1 (Mus musculus) (UniProt Q9JKE2); remark: listed apart in the source

TREM-1 (Mus musculus), sequence (Q9JKE2 21-230): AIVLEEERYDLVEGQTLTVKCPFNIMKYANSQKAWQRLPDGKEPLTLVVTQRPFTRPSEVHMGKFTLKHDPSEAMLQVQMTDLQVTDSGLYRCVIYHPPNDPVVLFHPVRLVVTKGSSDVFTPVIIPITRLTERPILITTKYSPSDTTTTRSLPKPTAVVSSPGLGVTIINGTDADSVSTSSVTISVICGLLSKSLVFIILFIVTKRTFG
eCIRP, sequence (P60824 whole entry): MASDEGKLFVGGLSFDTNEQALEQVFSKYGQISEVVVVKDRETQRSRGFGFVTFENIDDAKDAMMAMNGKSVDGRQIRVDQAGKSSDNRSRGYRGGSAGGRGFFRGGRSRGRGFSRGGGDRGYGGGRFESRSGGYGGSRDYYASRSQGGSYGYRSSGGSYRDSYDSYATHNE
CIRP, sequence (P60824 whole entry): as above
PGLYRP1 peptide N9, sequence (O75594 22-196): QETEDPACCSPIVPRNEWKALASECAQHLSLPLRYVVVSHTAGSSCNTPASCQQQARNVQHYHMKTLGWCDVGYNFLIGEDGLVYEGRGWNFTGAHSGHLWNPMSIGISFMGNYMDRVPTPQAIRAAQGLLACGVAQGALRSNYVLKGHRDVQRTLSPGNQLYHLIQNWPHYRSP
PGLYRP1 peptide 17, sequence (O75594 22-196): as above
PGLYRP1 peptide N15, sequence (O75594 22-196): as above
HSP70 N7 peptide, sequence (P0DMV8 2-641): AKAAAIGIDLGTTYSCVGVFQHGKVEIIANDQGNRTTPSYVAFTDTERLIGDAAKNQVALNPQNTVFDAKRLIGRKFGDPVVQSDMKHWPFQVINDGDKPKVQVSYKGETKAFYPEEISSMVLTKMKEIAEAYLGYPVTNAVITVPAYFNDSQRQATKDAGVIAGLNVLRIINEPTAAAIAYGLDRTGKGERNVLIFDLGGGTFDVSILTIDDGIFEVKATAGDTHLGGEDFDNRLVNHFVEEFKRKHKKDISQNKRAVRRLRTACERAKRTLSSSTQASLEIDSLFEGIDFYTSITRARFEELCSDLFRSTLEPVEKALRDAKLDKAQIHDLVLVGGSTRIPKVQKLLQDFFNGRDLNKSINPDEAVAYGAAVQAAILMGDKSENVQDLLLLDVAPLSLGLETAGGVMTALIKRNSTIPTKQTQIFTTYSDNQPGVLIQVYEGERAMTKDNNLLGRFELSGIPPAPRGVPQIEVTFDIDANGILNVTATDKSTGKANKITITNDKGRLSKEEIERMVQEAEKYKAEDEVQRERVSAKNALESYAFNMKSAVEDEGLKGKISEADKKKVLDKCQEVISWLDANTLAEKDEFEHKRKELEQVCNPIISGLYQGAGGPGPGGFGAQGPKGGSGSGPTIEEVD
HMGB1, sequence (P63158 whole entry): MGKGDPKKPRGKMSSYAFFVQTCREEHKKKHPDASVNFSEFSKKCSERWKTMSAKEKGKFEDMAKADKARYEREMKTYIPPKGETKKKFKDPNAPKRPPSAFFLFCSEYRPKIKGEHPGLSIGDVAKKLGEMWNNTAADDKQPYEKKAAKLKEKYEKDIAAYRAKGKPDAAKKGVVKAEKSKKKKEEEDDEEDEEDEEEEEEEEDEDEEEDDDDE

Kd (TREM-1 (Mus musculus) [1]): 117 nM
Substance: eCIRP (from UniProt P60824)

Kd (TREM-1 (Homo sapiens) [2]): 9.7 nM
Substance: PGLYRP1 peptide N9 (from UniProt O75594)

Kd (TREM-1 (Homo sapiens) [3]): 1.6 nM
Substance: HSP70 N7 peptide (from UniProt P0DMV8)

Kd (TREM-1 (Mus musculus) [4]): 120 nM
Substance: CIRP (from UniProt P60824)

Kd (TREM-1 (Homo sapiens) [5]): 7.4 nM
Substance: PGLYRP1 peptide N15 (from UniProt O75594)

Kd (TREM-1 (Homo sapiens) [6]): 1.3 nM
Substance: PGLYRP1 peptide 17 (from UniProt O75594)

Kd (TREM-1 (Mus musculus) [7]): 35400 nM
Substance: HMGB1 (from UniProt P63158)
